Tests used:
[1] = molecular target: MacMCM^ΔWHD.E391Q, MacMCM without the winged helix domain and with the Walker B mutation E391Q (Mancarchaeum acidiphilum); test: SEC
[2] = molecular target: MacMCM^ΔWHD.E391Q, MacMCM without the winged helix domain and with the Walker B mutation E391Q (Mancarchaeum acidiphilum); test: crystal structure
[3] = molecular target: MacMCM, minichromosome maintenance protein from Mancarchaeum acidiphilum (Mancarchaeum acidiphilum); test: SEC
[4] = molecular target: MacMCM^E391Q, Walker B mutant of MacMCM (Mancarchaeum acidiphilum); test: SEC

MacMCM^ΔWHD.E391Q, MacMCM without the winged helix domain and with the Walker B mutation E391Q (domain or fragment)
stoichiometry N [1]: 6 | stoichiometry N [2]: 6

MacMCM, minichromosome maintenance protein from Mancarchaeum acidiphilum (enzyme)
stoichiometry N [3]: 6

MacMCM^E391Q, Walker B mutant of MacMCM (enzyme)
stoichiometry N [4]: 6

Source: publication doi:10.1101/2023.08.11.552962
